Laboratory results: US20220002395A1 (FAPON BIOTECH, published 2022)
Where a chain is given by its changes, count along the chain named.

T1: Plasmodium falciparum histidine-rich protein II (HRP-II) (Plasmodium falciparum, UniProt P05227 22-332)
T1 construct: Coating antigen of all ELISAs; also called HRP-II protein; MA-HRPII Ag protein
T1 sequence (looked up): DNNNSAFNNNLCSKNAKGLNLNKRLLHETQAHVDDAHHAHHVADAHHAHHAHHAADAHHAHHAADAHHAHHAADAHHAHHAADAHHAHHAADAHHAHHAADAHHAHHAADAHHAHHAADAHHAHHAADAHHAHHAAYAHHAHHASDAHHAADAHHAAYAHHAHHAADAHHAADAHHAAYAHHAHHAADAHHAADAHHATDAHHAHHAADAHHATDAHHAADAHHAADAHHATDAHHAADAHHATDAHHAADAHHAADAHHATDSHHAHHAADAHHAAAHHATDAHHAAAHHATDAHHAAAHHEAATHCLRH

B1: Mutation 2 (antibody, mouse IgG2b, kappa, V domains shown)
VH: EVQLQQSGPEVVKPGASVKISCKASGSTLTEYYMNWVKQSHGKGLEWIGDLNPINGGTPYQQKFRDKATLTVDKSSNTAYMELRSLTSEDSALYYCTRGAEEYWGQGTTLTVSS
VL: DVVLTQTPLSLSVTIGQPASISCKSSQSIIYSNGKIYLNWFQQRPGQSPKRLMYQLSKIDPGIPDRFSGSGSETDFTLKISRVEAEDLGVYYCLQGTYSPNTFGGGTKLEIKR
notes: WT as framework
B2: Mutation 1-29 (antibody, mouse IgG2b, kappa, V domains shown)
VH: B1 VH with S27Y, L29I, E31D, L51V, N55Q, P59A, Q61N, E102D
VL: B1 VL with N33Q, L56V, I59L, D60E, S99Y, N101Q
notes: Mutation 1 as framework
B3: Mutation 1-45 (antibody, mouse IgG2b, kappa, V domains shown)
VH: B1 VH with S27Y, L29I, E31D, P59A, Q61N, R98K, E102D
VL: B1 VL with I30L, N33Q, I59L, D60E, S99Y, N101Q
notes: Mutation 1 as framework
B4: Mutation 1-15 (antibody, mouse IgG2b, kappa, V domains shown)
VH: B1 VH with S27Y, L29I, E31D, N55Q, P59A, Q61N, E102D
VL: B1 VL with I29L, I59L, D60E, S99T, N101Q
notes: Mutation 1 as framework
B5: Mutation 1-17 (antibody, mouse IgG2b, kappa, V domains shown)
VH: B1 VH with S27Y, L29I, E31D, L51V, P59A, Q61N, R98K, E102D
VL: B1 VL with I29L, I30L, N33Q, L56V, I59L, D60E, S99Y, N101Q
notes: Mutation 1 as framework
B6: Mutation 1-26 (antibody, mouse IgG2b, kappa, V domains shown)
VH: B1 VH with S27T, E31D, L51V, N55Q, P59A, Q61N, E102D
VL: B1 VL with I29L, I30L, N33Q, I59L, S99Y, N101Q
notes: Mutation 1 as framework
B7: Mutation 1-33 (antibody, mouse IgG2b, kappa, V domains shown)
VH: B1 VH with S27T, E31D, N55Q, P59A, Q61N, R98K, E102D
VL: B1 VL with I29L, I30L, I59L, D60E, N101Q
notes: Mutation 1 as framework
B8: Mutation 1-35 (antibody, mouse IgG2b, kappa, V domains shown)
VH: B1 VH with S27Y, L29I, E31D, L51V, N55Q, P59A, E102D
VL: B1 VL with I29L, I30L, L56V, I59L, D60E, G96A, S99Y, N101Q
notes: Mutation 1 as framework
B9: Mutation 1-48 (antibody, mouse IgG2b, kappa, V domains shown)
VH: B1 VH with S27Y, L29I, E31D, N55Q, P59A, Q61N, E102D
VL: B1 VL with I29L, I30L, N33Q, L56I, I59L, S99Y, N101Q
notes: Mutation 1 as framework
B10: Mutation 1-13 (antibody, mouse IgG2b, kappa, V domains shown)
VH: B1 VH with E31D, L51I, N55Q, P59A, Q61N, R98K, E102D
VL: B1 VL with I30L, N33Q, L56I, I59L, D60E, S99Y, N101Q
notes: Mutation 1 as framework
B11: Mutation 1-50 (antibody, mouse IgG2b, kappa, V domains shown)
VH: B1 VH with S27Y, L29I, E31D, L51V, N55Q, P59A, E102D
VL: B1 VL with I29L, I30L, I59L, D60E, G96A, S99Y, N101Q
notes: Mutation 1 as framework
B12: Mutation 1-23 (antibody, mouse IgG2b, kappa, V domains shown)
VH: B1 VH with S27T, E31D, L51V, N55Q, P59A, Q61N, E102D
VL: B1 VL with L56V, I59L, D60E, S99Y, N101Q
notes: Mutation 1 as framework
B13: Mutation 1-31 (antibody, mouse IgG2b, kappa, V domains shown)
VH: B1 VH with S27T, E31D, L51I, P59A, R98K, E102D
VL: B1 VL with I29L, I30L, L56I, I59L, D60E, S99T, N101Q
notes: Mutation 1 as framework
B14: Mutation 1-11 (antibody, mouse IgG2b, kappa, V domains shown)
VH: B1 VH with S27Y, L29I, E31D, L51V, P59A, Q61N, R98K, E102D
VL: B1 VL with L56V, I59L, D60E, G96A, S99T, N101Q
notes: Mutation 1 as framework
B15: Mutation 1-25 (antibody, mouse IgG2b, kappa, V domains shown)
VH: B1 VH with S27Y, L29I, E31D, L51I, N55Q, P59A, Q61N, E102D
VL: B1 VL with I29L, I30L, N33Q, L56I, I59L, D60E, S99T, N101Q
notes: Mutation 1 as framework
B16: Mutation 1-14 (antibody, mouse IgG2b, kappa, V domains shown)
VH: B1 VH with S27Y, E31D, L51V, P59A, Q61N, R98K, E102D
VL: B1 VL with I29L, I59L, G96A, S99T, N101Q
notes: Mutation 1 as framework
B17: Mutation 1-8 (antibody, mouse IgG2b, kappa, V domains shown)
VH: B1 VH with S27Y, L29I, E31D, L51V, N55Q, P59A, Q61N, R98K, E102D
VL: B1 VL with I29L, I30L, N33Q, I59L, G96A, S99T, N101Q
notes: Mutation 1 as framework
B18: Mutation 1-41 (antibody, mouse IgG2b, kappa, V domains shown)
VH: B1 VH with S27Y, E31D, L51V, P59A, R98K, E102D
VL: B1 VL with I30L, L56V, I59L, D60E, G96A, S99Y, N101Q
notes: Mutation 1 as framework
B19: Mutation 1-28 (antibody, mouse IgG2b, kappa, V domains shown)
VH: B1 VH with S27Y, L29I, E31D, L51I, N55Q, P59A, R98K, E102D
VL: B1 VL with L56V, I59L, G96A, S99T, N101Q
notes: Mutation 1 as framework

Legend:
[1] = molecular target: T1, Plasmodium falciparum histidine-rich …; assay: indirect ELISA, coated MA-HRPII Ag 1 ug/ml, antibody 1.6 ng/ml
[2] = molecular target: T1, Plasmodium falciparum histidine-rich …; assay: indirect ELISA, coated MA-HRPII Ag 1 ug/ml, antibody 40 ng/ml
[3] = molecular target: T1, Plasmodium falciparum histidine-rich …; assay: indirect ELISA, coated MA-HRPII Ag 1 ug/ml, antibody 200 ng/ml
[4] = molecular target: T1, Plasmodium falciparum histidine-rich …; assay: indirect ELISA, coated MA-HRPII Ag 1 ug/ml, antibody 0.32 ng/ml
[5] = molecular target: T1, Plasmodium falciparum histidine-rich …; assay: indirect ELISA, coated MA-HRPII Ag 1 ug/ml, antibody 8 ng/ml
[6] = molecular target: T1, Plasmodium falciparum histidine-rich …; assay: indirect ELISA, coated MA-HRPII Ag 1 ug/ml, antibody 1000 ng/ml
[7] = molecular target: T1, Plasmodium falciparum histidine-rich …; assay: indirect ELISA, four antigen coating concentrations;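 further: optical density read across an antibody dilution series at each antigen coating level, curves plotted on log scale, KD derived as reciprocal of the averaged constant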
Description: The OD values corresponding to different antibody concentrations with different coating concentrations are obtained. Under the same coating concentration, the antibody concentrations are used as an abscissa, the 00 values are used as an ordinate, and a logarithmic plot is made. […] An average value thereof is taken and a reciprocal thereof is calculated to get the affinity constant KD.

| Binder | Kd [7] [nM] | other results |
| --- | --- | --- |
| B1 | – | OD value at 450 nm (ref 630 nm) [1]: 0.101 OD; OD value at 450 nm (ref 630 nm) [2]: 0.551 OD; OD value at 450 nm (ref 630 nm) [3]: 2.05 OD; OD value at 450 nm (ref 630 nm) [4]: 0.077 OD; OD value at 450 nm (ref 630 nm) [5]: 0.189 OD; OD value at 450 nm (ref 630 nm) [6]: 2.23 OD |
| B2 | 0.0835 | – |
| B3 | 0.384 | – |
| B4 | 0.245 | – |
| B5 | 0.0824 | – |
| B6 | 0.211 | – |
| B7 | 0.169 | – |
| B8 | 0.521 | – |
| B9 | 0.333 | – |
| B10 | 0.0865 | – |
| B11 | 0.382 | – |
| B12 | 0.364 | – |
| B13 | 0.0946 | – |
| B14 | 0.0213 | – |
| B15 | 0.444 | – |
| B16 | 0.226 | – |
| B17 | 0.198 | – |
| B18 | 0.302 | – |
| B19 | 0.012 | – |
